In US20030192074A1:

Legend:
[1] = molecular target: AvrMla6 avirulence gene product of Erysiphe graminis f. sp. hordei (Erysiphe (=Blumeria) graminis f sp hordei)
[2] = molecular target: AvrMla1 avirulence gene product of Erysiphe graminis f. sp. hordei (Erysiphe (=Blumeria) graminis f sp hordei)
[3] = molecular target: AvrMla6 avirulence gene product of Erysiphe graminis f. sp. hordei (Erysiphe (=Blumeria) graminis f sp hordei); remark: listed apart in the source

Substance: MLA1 polypeptide (product of R gene A, Mla1, of barley line CI-16137, AlgR Mla1)
- percent of GFP-Mlo expressing cells with an attached spore that support a fungal colony (3-component single-cell assay, mlo-5 barley leaves, isolate A6) [1]: 47.1%
- percent of GFP-Mlo expressing cells with an attached spore that support a fungal colony (3-component single-cell assay, mlo-5 barley leaves, isolate K1) [2]: 9.3%
- percent of GUS stained wheat (CERCO) cells with an attached spore that contain haustorium, isolate A6 [3]: 23.9%

Substance: MLA6 polypeptide (product of Mla6 of barley line C.I. 16151)
- percent of GFP-Mlo expressing cells with an attached spore that support a fungal colony (3-component single-cell assay, mlo-5 barley leaves, isolate A6) [1]: 9.4%
- percent of GFP-Mlo expressing cells with an attached spore that support a fungal colony (3-component single-cell assay, mlo-5 barley leaves, isolate K1) [2]: 46.5%
- percent of GUS stained wheat (CERCO) cells with an attached spore that contain haustorium, isolate A6 [3]: 9.2%
